In assay [1] the target is T1, VEGF (UniProt P15692-4 27-191, limits assumed).
T1 construct: In the BLI assay the VEGF was biotin-labeled (Sulfo-NHS biotin, molar ratio 2:1) and loaded on an SA probe
As to the kind of experiment: BLI (Octet-QK), biotin-labeled VEGF on SA probe; repeat 1. The source says:
(§1) The binding affinity of the fusion protein is detected using BLI(Bio-layer inteferometry, ForteBio). […] Biotin not involved in labeling is removed by dialysis. […] The buffer used in the experiment is PBS (containing 0.1% Tween-20). […] Based on the program settings, the fusion protein is bound, and then dissociated in PBST solution, to obtain the experimental curve. According to the result analysis software of Octet-QK, local full is used to fit the curve of the experimental results, to calculate kon, kdis and Kd.

The target of assay [2] is T1, VEGF. As to the kind of experiment: BLI (Octet-QK), biotin-labeled VEGF on SA probe; repeat 2.
From the text: as §1

For assay [3], the target named is T1, VEGF. As to the kind of experiment: BLI (Octet-QK), biotin-labeled VEGF on SA probe; repeat 3.
From the text: as §1

Assay [4] concerns the target T1, VEGF. As to the kind of experiment: BLI (Octet-QK), biotin-labeled VEGF on SA probe; average value of 3 repeats.
From the text: as §1

The target of assay [5] is T1, VEGF. As to the kind of experiment: VEGF receptor competitive inhibition ELISA: sample in 3-fold dilutions premixed with 1 µg/mL VEGF, added to coated VEGF Receptor 2/KDR, bound VEGF detected with anti-VEGF antibody.
Experimental: Blocking the ELISA plate with 1% BSA/TBS and placing at 37° C. for 2 h. […] The KDR-coated ELISA plate is washed twice and pat-dried. Then, the gradiently diluted mixture samples are successively transferred to the ELISA plate and placed at 37° C. for 1 h, then the plate is washed 5 times. […] The plate is placed at 37° C. for 1 h and washed 5 times. […] The plate is placed at 37° C. for 1 h and washed for 6 times. After the reaction, adding the color developing solution, and developing the color at 37° C. for 15 min. Adding the stop buffer to terminate the color reaction. Reading the OD450 value on the microplate reader.

T1 sequence (P15692 other isoform, or with tags, fused parts or gaps limits assumed): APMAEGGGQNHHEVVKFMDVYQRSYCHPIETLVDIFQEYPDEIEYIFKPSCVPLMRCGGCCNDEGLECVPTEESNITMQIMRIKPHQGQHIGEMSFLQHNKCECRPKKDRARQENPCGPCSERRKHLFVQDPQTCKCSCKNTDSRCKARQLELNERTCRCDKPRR

B1: ankyrin repeat protein binding to VEGF (designed binder)
chain: GSDLDKKLLEAARAGQDDEVRILMANGADVNARDSTGWTPLHLAAPWGHPEIVEVLLKNGADVNAADFQGWTPLHLAAAVGHLEIVEVLLKYGADVNAQDKFGKTAFDISIDNGNEDLAEILQKAA
notes: Unfused ARVEGF used as comparator; also called ARVEGF
As to B1, the Kd with VEGF [1] was found to be 0.55 nM; in the assay with VEGF [2], 0.47 nM; in the assay with VEGF [3] it was 0.59 nM; with VEGF [4], 0.54 nM. The IC50 with VEGF [5] was found to be 0.64 nM.

Values taken from US20220073563A1 (ZHEJIANG DOER BIOLOGICS, published 2022).
